Experimental data from patent publication US20140087995A1 (published 2014).
One block for each binder: values may come before it. Numbered stars: 1 amine (or outer) side, 2 acyl side, 3 side chain; on linkers, the order of the positions; unused ones are H or OH. Bridge positions count the residues as written; N and C are the ends. Side chains are listed from the residue outwards. Ends that are not written are not given here. * marks the point of attachment. C20 diacid = O=C(O)CCCCCCCCCCCCCCCCCCC(=O)*; C18 diacid = O=C(O)CCCCCCCCCCCCCCCCC(=O)*; C16 diacid = O=C(O)CCCCCCCCCCCCCCC(=O)*; γGlu = O=C(O)[C@H](CCC(=O)[*:2])N[*:1]

Assays:
[1] = biological target: T1, human calcitonin receptor (human, UniProt P30988 25-474); experiment: SPA competition on BHK cell membranes, 125I-calcitonin as radioligand (Assay VII)
T1 construct: whole, on cells; Used as cell membranes; also called hCTR; hCT
T1 sequence (looked up): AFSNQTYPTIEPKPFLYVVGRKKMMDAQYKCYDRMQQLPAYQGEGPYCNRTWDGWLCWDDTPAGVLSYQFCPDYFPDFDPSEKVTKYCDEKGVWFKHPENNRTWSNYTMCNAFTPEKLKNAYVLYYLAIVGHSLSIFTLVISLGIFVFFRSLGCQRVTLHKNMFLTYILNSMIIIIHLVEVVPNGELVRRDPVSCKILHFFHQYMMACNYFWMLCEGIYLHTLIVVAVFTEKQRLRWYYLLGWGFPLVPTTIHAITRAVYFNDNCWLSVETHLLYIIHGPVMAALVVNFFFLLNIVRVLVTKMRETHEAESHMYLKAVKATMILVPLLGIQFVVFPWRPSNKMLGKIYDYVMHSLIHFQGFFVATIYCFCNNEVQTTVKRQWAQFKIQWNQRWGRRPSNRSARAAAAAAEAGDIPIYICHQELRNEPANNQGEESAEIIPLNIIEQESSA
How it was run: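 BHK hCTR membranes 35 ng/μL + SPA beads 0.05 mg/well; buffer 50 mM Hepes pH 7.4, 1 mM CaCl2, 5 mM MgCl₂, 0.1% OA, 0.02% Tween20. 120 min, 25° C., shaking. Scintillation count; IC50 by one-site binding competition.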

[2] = biological target: T1, human calcitonin receptor; experiment: ratio of hCTR IC50 to hAmylin-R IC50 (reference: human amylin receptor)
How it was run: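 Membranes (35 ng/μL final) + SPA beads, 50 mM Hepes pH 7.4 buffer with 1 mM CaCl2, 5 mM MgCl₂, 0.1% OA, 0.02% Tween20; 120 min, 25° C, shaking; centrifuged, counted; IC₅₀ by one-site binding competition.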

IC50 [1]: 22.7 nM
Ratio hCT/hAmylin binding [2]: 59.4
B1: N^ε1-[(4S)-4-carboxy-4-(17-carboxyheptadecanoylamino)butanoyl]-[Arg17,Pro21,Pro27,His34]-h-amylin (peptide)
peptide: K([γGlu-C18 diacid])CNTATCATQRLANFLRHSSPNFGAIPSSTNVGHNTY-NH2
modifications: disulfide 2-7; N-terminus assumed
SMILES: CC[C@H](C)[C@H](NC(=O)[C@H](C)NC(=O)CNC(=O)[C@H](Cc1ccccc1)NC(=O)[C@H](CC(N)=O)NC(=O)[C@@H]1CCCN1C(=O)[C@H](CO)NC(=O)[C@H](CO)NC(=O)[C@H](Cc1c[nH]cn1)NC(=O)[C@H](CCCNC(=N)N)NC(=O)[C@H](CC(C)C)NC(=O)[C@H](Cc1ccccc1)NC(=O)[C@H](CC(N)=O)NC(=O)[C@H](C)NC(=O)[C@H](CC(C)C)NC(=O)[C@H](CCCNC(=N)N)NC(=O)[C@H](CCC(N)=O)NC(=O)[C@@H](NC(=O)[C@H](C)NC(=O)[C@@H]1CSSC[C@H](NC(=O)[C@@H](N)CCCCNC(=O)CC[C@H](NC(=O)CCCCCCCCCCCCCCCCC(=O)O)C(=O)O)C(=O)N[C@@H](CC(N)=O)C(=O)N[C@@H]([C@@H](C)O)C(=O)N[C@@H](C)C(=O)N[C@@H]([C@@H](C)O)C(=O)N1)[C@@H](C)O)C(=O)N1CCC[C@H]1C(=O)N[C@@H](CO)C(=O)N[C@@H](CO)C(=O)N[C@H](C(=O)N[C@@H](CC(N)=O)C(=O)N[C@H](C(=O)NCC(=O)N[C@@H](Cc1c[nH]cn1)C(=O)N[C@@H](CC(N)=O)C(=O)N[C@H](C(=O)N[C@@H](Cc1ccc(O)cc1)C(N)=O)[C@@H](C)O)C(C)C)[C@@H](C)O

IC50 [1]: 29.2 nM
Ratio hCT/hAmylin binding [2]: 68.6
B2: N^-1-[(4S)-4-carboxy-4-(19-carboxynonadecanoylamino)butanoyl]-Gly[Arg1,Ala14,Arg17,Pro21,Pro27,His34]-h-amylin (peptide)
peptide: {C20 diacid-γGlu}-GRCNTATCATQRLAAFLRHSSPNFGAIPSSTNVGHNTY-NH2
modifications: disulfide 3-8
SMILES: CC[C@H](C)[C@H](NC(=O)[C@H](C)NC(=O)CNC(=O)[C@H](Cc1ccccc1)NC(=O)[C@H](CC(N)=O)NC(=O)[C@@H]1CCCN1C(=O)[C@H](CO)NC(=O)[C@H](CO)NC(=O)[C@H](Cc1c[nH]cn1)NC(=O)[C@H](CCCNC(=N)N)NC(=O)[C@H](CC(C)C)NC(=O)[C@H](Cc1ccccc1)NC(=O)[C@H](C)NC(=O)[C@H](C)NC(=O)[C@H](CC(C)C)NC(=O)[C@H](CCCNC(=N)N)NC(=O)[C@H](CCC(N)=O)NC(=O)[C@@H](NC(=O)[C@H](C)NC(=O)[C@@H]1CSSC[C@H](NC(=O)[C@H](CCCNC(=N)N)NC(=O)CNC(=O)CC[C@H](NC(=O)CCCCCCCCCCCCCCCCCCC(=O)O)C(=O)O)C(=O)N[C@@H](CC(N)=O)C(=O)N[C@@H]([C@@H](C)O)C(=O)N[C@@H](C)C(=O)N[C@@H]([C@@H](C)O)C(=O)N1)[C@@H](C)O)C(=O)N1CCC[C@H]1C(=O)N[C@@H](CO)C(=O)N[C@@H](CO)C(=O)N[C@H](C(=O)N[C@@H](CC(N)=O)C(=O)N[C@H](C(=O)NCC(=O)N[C@@H](Cc1c[nH]cn1)C(=O)N[C@@H](CC(N)=O)C(=O)N[C@H](C(=O)N[C@@H](Cc1ccc(O)cc1)C(N)=O)[C@@H](C)O)C(C)C)[C@@H](C)O
notes: 38 residues

IC50 [1]: 35 nM
Ratio hCT/hAmylin binding [2]: 100
B3: N{-1}-[(4S)-4-carboxy-4-(19-carboxynonadecanoylamino)butanoyl]-Gly[Arg1,His14,Arg17,Pro21,Pro27]-h-amylin (peptide)
peptide: {C20 diacid-γGlu}-GRCNTATCATQRLAHFLRHSSPNFGAIPSSTNVGSNTY-NH2
modifications: disulfide 3-8
SMILES: CC[C@H](C)[C@H](NC(=O)[C@H](C)NC(=O)CNC(=O)[C@H](Cc1ccccc1)NC(=O)[C@H](CC(N)=O)NC(=O)[C@@H]1CCCN1C(=O)[C@H](CO)NC(=O)[C@H](CO)NC(=O)[C@H](Cc1c[nH]cn1)NC(=O)[C@H](CCCNC(=N)N)NC(=O)[C@H](CC(C)C)NC(=O)[C@H](Cc1ccccc1)NC(=O)[C@H](Cc1c[nH]cn1)NC(=O)[C@H](C)NC(=O)[C@H](CC(C)C)NC(=O)[C@H](CCCNC(=N)N)NC(=O)[C@H](CCC(N)=O)NC(=O)[C@@H](NC(=O)[C@H](C)NC(=O)[C@@H]1CSSC[C@H](NC(=O)[C@H](CCCNC(=N)N)NC(=O)CNC(=O)CC[C@H](NC(=O)CCCCCCCCCCCCCCCCCCC(=O)O)C(=O)O)C(=O)N[C@@H](CC(N)=O)C(=O)N[C@@H]([C@@H](C)O)C(=O)N[C@@H](C)C(=O)N[C@@H]([C@@H](C)O)C(=O)N1)[C@@H](C)O)C(=O)N1CCC[C@H]1C(=O)N[C@@H](CO)C(=O)N[C@@H](CO)C(=O)N[C@H](C(=O)N[C@@H](CC(N)=O)C(=O)N[C@H](C(=O)NCC(=O)N[C@@H](CO)C(=O)N[C@@H](CC(N)=O)C(=O)N[C@H](C(=O)N[C@@H](Cc1ccc(O)cc1)C(N)=O)[C@@H](C)O)C(C)C)[C@@H](C)O
notes: 38 residues; also called compound 99

IC50 [1]: 7.87 nM
Ratio hCT/hAmylin binding [2]: 36.2
B4: N^-1-[(4S)-4-carboxy-4-(19-carboxynonadecanoylamino)butanoyl]-Gly[Arg1,His14,Arg17,Pro21,Pro27,Pro34]-h-amylin (peptide)
peptide: {C20 diacid-γGlu}-GRCNTATCATQRLAHFLRHSSPNFGAIPSSTNVGPNTY-NH2
modifications: disulfide 3-8
SMILES: CC[C@H](C)[C@H](NC(=O)[C@H](C)NC(=O)CNC(=O)[C@H](Cc1ccccc1)NC(=O)[C@H](CC(N)=O)NC(=O)[C@@H]1CCCN1C(=O)[C@H](CO)NC(=O)[C@H](CO)NC(=O)[C@H](Cc1c[nH]cn1)NC(=O)[C@H](CCCNC(=N)N)NC(=O)[C@H](CC(C)C)NC(=O)[C@H](Cc1ccccc1)NC(=O)[C@H](Cc1c[nH]cn1)NC(=O)[C@H](C)NC(=O)[C@H](CC(C)C)NC(=O)[C@H](CCCNC(=N)N)NC(=O)[C@H](CCC(N)=O)NC(=O)[C@@H](NC(=O)[C@H](C)NC(=O)[C@@H]1CSSC[C@H](NC(=O)[C@H](CCCNC(=N)N)NC(=O)CNC(=O)CC[C@H](NC(=O)CCCCCCCCCCCCCCCCCCC(=O)O)C(=O)O)C(=O)N[C@@H](CC(N)=O)C(=O)N[C@@H]([C@@H](C)O)C(=O)N[C@@H](C)C(=O)N[C@@H]([C@@H](C)O)C(=O)N1)[C@@H](C)O)C(=O)N1CCC[C@H]1C(=O)N[C@@H](CO)C(=O)N[C@@H](CO)C(=O)N[C@H](C(=O)N[C@@H](CC(N)=O)C(=O)N[C@H](C(=O)NCC(=O)N1CCC[C@H]1C(=O)N[C@@H](CC(N)=O)C(=O)N[C@H](C(=O)N[C@@H](Cc1ccc(O)cc1)C(N)=O)[C@@H](C)O)C(C)C)[C@@H](C)O
notes: 38 residues

IC50 [1]: 3 nM
Ratio hCT/hAmylin binding [2]: 26.5
B5: N^-1-[(4S)-4-carboxy-4-(19-carboxynonadecanoylamino)butanoyl]-Gly[Arg1,Ala14,Arg17,Pro21,Pro27,Pro34]-h-amylin (peptide)
peptide: {C20 diacid-γGlu}-GRCNTATCATQRLAAFLRHSSPNFGAIPSSTNVGPNTY-NH2
modifications: disulfide 3-8
notes: 38 residues

IC50 [1]: 10.8 nM
Ratio hCT/hAmylin binding [2]: 18.5
B6: N^ε1-[(4S)-4-carboxy-4-(15-carboxypentadecanoylamino)butanoyl]-[Arg17,Pro21,Pro27,His34]-h-amylin (peptide)
peptide: K([γGlu-C16 diacid])CNTATCATQRLANFLRHSSPNFGAIPSSTNVGHNTY-NH2
modifications: disulfide 2-7; N-terminus assumed
SMILES: CC[C@H](C)[C@H](NC(=O)[C@H](C)NC(=O)CNC(=O)[C@H](Cc1ccccc1)NC(=O)[C@H](CC(N)=O)NC(=O)[C@@H]1CCCN1C(=O)[C@H](CO)NC(=O)[C@H](CO)NC(=O)[C@H](Cc1c[nH]cn1)NC(=O)[C@H](CCCNC(=N)N)NC(=O)[C@H](CC(C)C)NC(=O)[C@H](Cc1ccccc1)NC(=O)[C@H](CC(N)=O)NC(=O)[C@H](C)NC(=O)[C@H](CC(C)C)NC(=O)[C@H](CCCNC(=N)N)NC(=O)[C@H](CCC(N)=O)NC(=O)[C@@H](NC(=O)[C@H](C)NC(=O)[C@@H]1CSSC[C@H](NC(=O)[C@@H](N)CCCCNC(=O)CC[C@H](NC(=O)CCCCCCCCCCCCCCC(=O)O)C(=O)O)C(=O)N[C@@H](CC(N)=O)C(=O)N[C@@H]([C@@H](C)O)C(=O)N[C@@H](C)C(=O)N[C@@H]([C@@H](C)O)C(=O)N1)[C@@H](C)O)C(=O)N1CCC[C@H]1C(=O)N[C@@H](CO)C(=O)N[C@@H](CO)C(=O)N[C@H](C(=O)N[C@@H](CC(N)=O)C(=O)N[C@H](C(=O)NCC(=O)N[C@@H](Cc1c[nH]cn1)C(=O)N[C@@H](CC(N)=O)C(=O)N[C@H](C(=O)N[C@@H](Cc1ccc(O)cc1)C(N)=O)[C@@H](C)O)C(C)C)[C@@H](C)O
